Reference: paper PMC12550933, “Novel Humanized Anti-HER3 Antibodies: Structural Characterization and Therapeutic Activity” (Antibodies, 2025)

Key:
Settings in all cases: both partners purified
[1] = target: T1, human HER3-Fc chimeric protein (Homo sapiens, UniProt P21860); assay: SPR; Biacore X100; HER3 Fc chimera coupled to a CM5 chip; antibodies as analytes, single-cycle kinetics, 25 °C; duplicate; KD = koff/kon
T1 construct: human HER3 (ErbB3) part of the bought Fc chimera; also called HER3 Fc chimera protein; Recombinant human HER3/HER3-Fc chimeric protein; source: bought: R&D Systems
T1 sequence (P21860 20-643, change not shown): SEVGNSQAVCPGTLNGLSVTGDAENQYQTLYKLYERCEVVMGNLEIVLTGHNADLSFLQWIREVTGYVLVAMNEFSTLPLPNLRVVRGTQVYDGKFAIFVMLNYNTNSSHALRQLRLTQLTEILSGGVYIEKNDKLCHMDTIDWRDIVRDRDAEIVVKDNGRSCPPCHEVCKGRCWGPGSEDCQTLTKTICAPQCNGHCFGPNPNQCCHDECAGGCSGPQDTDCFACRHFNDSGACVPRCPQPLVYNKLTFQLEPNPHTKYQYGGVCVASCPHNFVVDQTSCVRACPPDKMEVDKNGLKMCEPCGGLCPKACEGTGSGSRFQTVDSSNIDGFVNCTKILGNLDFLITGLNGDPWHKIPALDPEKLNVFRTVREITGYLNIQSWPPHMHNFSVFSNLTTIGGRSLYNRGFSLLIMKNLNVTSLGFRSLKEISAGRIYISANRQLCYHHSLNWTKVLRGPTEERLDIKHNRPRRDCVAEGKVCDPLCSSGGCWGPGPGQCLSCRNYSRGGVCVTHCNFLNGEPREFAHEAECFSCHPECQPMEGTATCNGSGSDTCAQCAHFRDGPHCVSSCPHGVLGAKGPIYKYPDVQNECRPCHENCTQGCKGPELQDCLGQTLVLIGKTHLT

Mouse HER3/HER3 (HisTag) = target: T2, Mouse HER3/HER3 (HisTag) (mouse, UniProt Q61526); assay: ELISA; plates coated with 1 µg/mL recombinant human, mouse, rat or rhesus HER3 (His tag); purified antibodies, dose-response
T2 construct: mouse HER3 (ErbB3), bought recombinant protein; probably the extracellular domain (surmise); also called recombinant mouse HER3; source: bought: Sinobiological
T2 sequence (Q61526 20-641): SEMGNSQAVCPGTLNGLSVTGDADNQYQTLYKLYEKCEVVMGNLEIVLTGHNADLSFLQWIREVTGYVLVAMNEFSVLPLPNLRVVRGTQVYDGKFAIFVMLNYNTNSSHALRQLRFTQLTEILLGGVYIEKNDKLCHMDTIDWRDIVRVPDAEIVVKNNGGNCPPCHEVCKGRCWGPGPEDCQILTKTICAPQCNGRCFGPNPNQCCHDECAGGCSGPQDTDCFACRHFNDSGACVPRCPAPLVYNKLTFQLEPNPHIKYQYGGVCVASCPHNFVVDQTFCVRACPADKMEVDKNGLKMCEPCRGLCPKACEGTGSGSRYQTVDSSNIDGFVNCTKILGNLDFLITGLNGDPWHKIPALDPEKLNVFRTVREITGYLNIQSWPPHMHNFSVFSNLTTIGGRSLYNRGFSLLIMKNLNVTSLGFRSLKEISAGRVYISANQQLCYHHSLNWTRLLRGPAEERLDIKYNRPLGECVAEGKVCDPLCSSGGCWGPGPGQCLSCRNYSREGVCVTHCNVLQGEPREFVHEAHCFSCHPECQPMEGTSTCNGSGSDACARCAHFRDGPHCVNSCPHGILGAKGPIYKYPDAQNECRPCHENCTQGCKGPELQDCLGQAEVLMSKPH

[2] = target: T3, Rhesus HER3/HER3 (HisTag) (Macaca mulatta, UniProt H9ERZ8); assay: as above
T3 construct: rhesus HER3 (ErbB3), bought recombinant protein; probably the extracellular domain (surmise); also called recombinant rhesus HER3; source: bought: Sinobiological

Rat HER3/HER3 (HisTag) = target: T4, Rat HER3/HER3 (HisTag) (rat, UniProt Q62799); assay: as above
T4 construct: rat HER3 (ErbB3), bought recombinant protein; probably the extracellular domain (surmise); also called recombinant rat HER3; source: bought: Sinobiological
T4 sequence (Q62799 20-643): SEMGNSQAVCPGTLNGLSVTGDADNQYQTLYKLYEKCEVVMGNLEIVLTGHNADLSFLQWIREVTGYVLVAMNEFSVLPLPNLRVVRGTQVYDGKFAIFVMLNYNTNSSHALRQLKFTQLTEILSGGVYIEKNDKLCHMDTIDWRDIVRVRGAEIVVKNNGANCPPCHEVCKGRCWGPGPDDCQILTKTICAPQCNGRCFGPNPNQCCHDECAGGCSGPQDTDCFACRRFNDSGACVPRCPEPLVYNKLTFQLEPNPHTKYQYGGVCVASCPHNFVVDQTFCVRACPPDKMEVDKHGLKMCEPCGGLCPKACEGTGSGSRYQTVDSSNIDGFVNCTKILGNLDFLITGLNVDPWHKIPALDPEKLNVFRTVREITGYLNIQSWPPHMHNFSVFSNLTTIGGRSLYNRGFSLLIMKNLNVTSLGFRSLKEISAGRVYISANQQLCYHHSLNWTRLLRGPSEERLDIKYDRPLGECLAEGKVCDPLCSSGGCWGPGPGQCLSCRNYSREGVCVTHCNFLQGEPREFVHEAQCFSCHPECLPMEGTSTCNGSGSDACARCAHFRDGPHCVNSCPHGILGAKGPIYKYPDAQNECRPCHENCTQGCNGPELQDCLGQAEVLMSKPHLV

[3] = target: T5, HER3 peptide #54 (15-mer of the overlapping peptide library) (Homo sapiens, UniProt P21860); assay: peptide or protein array; ELISA on plates coated with 1 µg/mL of 15-mer HER3 peptides with 11 residues overlap; antibody at 1 µg/mL overnight at 4 °C
T5 construct: 15-mer of human HER3 from a library of 15-mers with 11 residues overlap; Limits worked out from the printed core and the 11-residue overlap; source: synthetic peptide (JPT Peptide Technologies)
T5 chain: QCNGHCFGPNPNQCC

[4] = target: T6, HER3 peptide #55 (15-mer of the overlapping peptide library) (Homo sapiens, UniProt P21860); assay: as above
T6 construct: 15-mer of human HER3 from a library of 15-mers with 11 residues overlap; Limits worked out from the printed core and the 11-residue overlap; source: synthetic peptide (JPT Peptide Technologies)
T6 chain: HCFGPNPNQCCHDEC

[5] = target: T7, Recombinant human ErbB2 chimeric protein (Homo sapiens (Human)., UniProt P04626); assay: ELISA; plates coated with 1 µg/mL recombinant EGFR, ErbB2, HER3 or ErbB4 chimeric protein; purified antibodies at 10 µg/mL (Figure 3A) or in serial dilutions on human HER3 (Figure 3B)
T7 construct: human ErbB2 part of the bought chimeric protein; also called HER2; source: bought: R&D Systems

[6] = target: T8, Recombinant human EGFR-Fc chimeric protein (Homo sapiens (Human)., UniProt P00533); assay: as above
T8 construct: human EGFR part of the bought Fc chimera; also called ErbB1; HER1; source: bought: R&D Systems

[7] = target: T9, Recombinant human ErbB4 chimeric protein (Homo sapiens (Human)., UniProt Q15303); assay: as above
T9 construct: human ErbB4 part of the bought chimeric protein; also called HER4; source: bought: R&D Systems
T9 sequence (Q15303 26-651, change not shown): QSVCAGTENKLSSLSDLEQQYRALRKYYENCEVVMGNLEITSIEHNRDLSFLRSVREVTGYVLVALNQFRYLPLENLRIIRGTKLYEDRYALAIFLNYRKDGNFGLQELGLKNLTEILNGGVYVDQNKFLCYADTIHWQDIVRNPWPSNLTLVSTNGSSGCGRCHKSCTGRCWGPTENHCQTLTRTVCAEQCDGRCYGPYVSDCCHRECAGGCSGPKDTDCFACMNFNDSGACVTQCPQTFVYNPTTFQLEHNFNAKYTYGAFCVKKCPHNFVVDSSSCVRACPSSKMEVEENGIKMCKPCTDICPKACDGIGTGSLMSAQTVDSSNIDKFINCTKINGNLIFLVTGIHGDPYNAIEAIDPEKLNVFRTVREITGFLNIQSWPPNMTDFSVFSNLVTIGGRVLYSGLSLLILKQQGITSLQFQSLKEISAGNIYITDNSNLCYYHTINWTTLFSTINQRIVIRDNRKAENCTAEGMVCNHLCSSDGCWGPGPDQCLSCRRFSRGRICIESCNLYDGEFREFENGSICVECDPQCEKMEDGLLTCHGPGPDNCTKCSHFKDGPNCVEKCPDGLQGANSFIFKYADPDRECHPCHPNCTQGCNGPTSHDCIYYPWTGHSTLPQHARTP

Kd [1]: 1.81 nM | koff [1]: 0.000113 s⁻¹ | kon [1]: 62400 M⁻¹ s⁻¹ | binding result (Mouse HER3/HER3 (HisTag)): binds | binding result [2]: binds | binding result (Rat HER3/HER3 (HisTag)): binds | binding result [3]: binds | binding result [4]: binds | binding result [5]: no binding (tested: 10 µg/mL) | binding result [6]: no binding (tested: 10 µg/mL) | binding result [7]: no binding (tested: 10 µg/mL)
B1: TK-hu A3-H1L1 humanized anti-HER3 monoclonal antibody (human IgG1, kappa) (antibody, V domains shown)
VH: QVTLRESGPALVKPTQTLTLTCTFSGFSLSTYGMGVGWIRQPPGKALEWLANIWWNDDKYYSSSLKTRLTISKDTSKNQVVLTMTNMDPVDTATYYCVQIANPYWYFDVWGQGTTVTVSS
VL: DIVMTQTPLSLSVTPGQPASISCKSSQSLLHSYGNTYLEWYLQKPGQSPQLLIYRVSNRFSGVPDRFSGSGSGTDFTLKISRVEAEDVGVYYCFQGSHVPFTFGQGTKLEIK
notes: humanized heavy chain variable region, variant H1 (germline CDR grafting of murine TK-A3); they are in PDB 9I1Q chain I (also J, K, L), which also holds CH1 of the Fab; human IgG1 constant region present in the expression vector; humanized light chain variant L1 in frame with the human kappa constant region; the whole light chain is in PDB 9I1Q chain F (also E, G, H); IgG1 kappa; also called …
